Biological target: T1, SHP-2 (mouse, UniProt P35235 2-593, limits assumed)
T1 construct: Endogenous protein probed in anti-Lck immunoprecipitates; also called tyrosine phosphatase SHP-2
T1 sequence (looked up): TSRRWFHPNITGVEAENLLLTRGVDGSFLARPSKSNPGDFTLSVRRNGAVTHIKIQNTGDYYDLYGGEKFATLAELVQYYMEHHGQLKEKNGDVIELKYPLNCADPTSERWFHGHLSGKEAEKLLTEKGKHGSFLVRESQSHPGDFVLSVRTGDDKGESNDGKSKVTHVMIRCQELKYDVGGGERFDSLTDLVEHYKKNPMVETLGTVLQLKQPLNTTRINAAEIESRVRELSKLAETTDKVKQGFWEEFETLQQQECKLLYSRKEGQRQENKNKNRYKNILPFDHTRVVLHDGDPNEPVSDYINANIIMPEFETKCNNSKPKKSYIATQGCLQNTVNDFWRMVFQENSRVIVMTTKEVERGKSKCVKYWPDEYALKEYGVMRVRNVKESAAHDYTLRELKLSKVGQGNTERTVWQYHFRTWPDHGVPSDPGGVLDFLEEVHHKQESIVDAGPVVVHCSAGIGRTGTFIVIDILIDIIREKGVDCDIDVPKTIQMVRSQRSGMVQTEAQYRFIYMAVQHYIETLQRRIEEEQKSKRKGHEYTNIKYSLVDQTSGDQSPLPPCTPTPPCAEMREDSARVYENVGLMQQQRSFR
Assay: co-immunoprecipitation with anti-Lck from 5C.C7 T cell lysates, Western blot
Experimental: (A) Western blot analyses of anti-Lck immuno-precipitates to detect site-specific phosphorylation. Phosphorylation of Lck at the activating Y394 or inhibitory Y505 before antigen stimulation were probed with specific antibodies. […] Membranes were stripped and re-probed for Lck as loading controls. (B) Induction of ERK phosphorylation by the antagonist MCC 99R. Virally-infected T cells were mixed with CH27 cells alone or CH27 cells preloaded with 10 μM MCC 99R, spun down to facilitate rapid T:APC contact, incubated at 37° C. for 5 minutes, and analyzed for ERK phosphorylation by Phosphor-Flow. Cells were gated on GFP and CD4 for virally-infected T cells. […] (D) Western blot analyses of anti-Lck immuno-precipitates to detect Lck serine phosphorylation before antigen stimulation. […] Double selected 5C.C7 T cells were mixed with peptide pre-loaded CH27 cells (10 μM MCC 99R or 1 μM MCC) by quick spin and incubated at 37° C. for 5 mins. SHP-1 was co-precipitated with Lck whereas SHP-2 was undetectable under the same condition.

B1: Lck (enzyme, mouse, UniProt P06240 2-509, looked up)
chain: GCVCSSNPEDDWMENIDVCENCHYPIVPLDSKISLPIRNGSEVRDPLVTYEGSLPPASPLQDNLVIALHSYEPSHDGDLGFEKGEQLRILEQSGEWWKAQSLTTGQEGFIPFNFVAKANSLEPEPWFFKNLSRKDAERQLLAPGNTHGSFLIRESESTAGSFSLSVRDFDQNQGEVVKHYKIRNLDNGGFYISPRITFPGLHDLVRHYTNASDGLCTKLSRPCQTQKPQKPWWEDEWEVPRETLKLVERLGAGQFGEVWMGYYNGHTKVAVKSLKQGSMSPDAFLAEANLMKQLQHPRLVRLYAVVTQEPIYIITEYMENGSLVDFLKTPSGIKLNVNKLLDMAAQIAEGMAFIEEQNYIHRDLRAANILVSDTLSCKIADFGLARLIEDNEYTAREGAKFPIKWTAPEAINYGTFTIKSDVWSFGILLTEIVTHGRIPYPGMTNPEVIQNLERGYRMVRPDNCPEELYHLMMLCWKERPEDRPTFDYLRSVLDDFFTATEGQYQPQP
notes: Endogenous protein in T cell lysates; the phosphorylation state varies with the condition
binding result: no binding
